From US20240360238A1 (MAGENTA THERAPEUTICS, published 2024)
Residue numbers refer to the chain shown, from its start.

How the values were obtained:
[1] = target: T1, CD117 on Kasumi-1 cells and primary human CD34+ bone marrow cells (human, UniProt P10721 26-976); experiment: cell-based or functional assay
[2] = target: T1, CD117 on Kasumi-1 cells and primary …; experiment: cell-based or functional assay; remark: listed apart in the source
[3] = target: T1, CD117 on Kasumi-1 cells and primary …; experiment: cell-based or functional assay; remark: listed apart in the source
[4] = target: T2, purified human CD117 ectodomain (R&D Systems #332-SR) (human, UniProt P10721 26-524); experiment: BLI (Octet Red96), IgG on anti-human Fc sensor, 33.3 and 11 nM ectodomain
T2 construct: extracellular domain; Bought protein; also called c-kit; purified recombinant human CD117 ectodomain

[5] = target: T2, purified human CD117 ectodomain (R&D …); experiment: BLI; kdis compared to HC-1/LC-1 (Ab1)
[6] = target: T2, purified human CD117 ectodomain (R&D …); experiment: BLI, IgG on anti-human Fc sensor, 33 and 11 nM ectodomain;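 further: Kd, kon and koff are apparent values, with Kd reported as the apparent monovalent affinity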

T2 sequence (P10721 26-524): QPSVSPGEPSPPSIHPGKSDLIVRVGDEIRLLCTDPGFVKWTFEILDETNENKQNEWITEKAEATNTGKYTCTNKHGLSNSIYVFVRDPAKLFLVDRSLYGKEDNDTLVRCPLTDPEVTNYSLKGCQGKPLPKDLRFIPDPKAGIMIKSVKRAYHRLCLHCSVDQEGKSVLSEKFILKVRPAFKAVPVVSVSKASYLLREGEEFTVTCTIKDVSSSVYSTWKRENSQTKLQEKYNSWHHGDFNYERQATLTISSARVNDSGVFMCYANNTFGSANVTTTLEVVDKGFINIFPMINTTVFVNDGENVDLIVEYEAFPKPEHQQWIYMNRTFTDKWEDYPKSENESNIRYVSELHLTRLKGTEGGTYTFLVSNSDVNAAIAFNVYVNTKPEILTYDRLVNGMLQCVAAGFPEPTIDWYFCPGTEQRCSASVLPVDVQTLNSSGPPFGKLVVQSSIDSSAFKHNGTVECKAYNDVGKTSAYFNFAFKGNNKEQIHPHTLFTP
T1 sequence (P10721 26-976): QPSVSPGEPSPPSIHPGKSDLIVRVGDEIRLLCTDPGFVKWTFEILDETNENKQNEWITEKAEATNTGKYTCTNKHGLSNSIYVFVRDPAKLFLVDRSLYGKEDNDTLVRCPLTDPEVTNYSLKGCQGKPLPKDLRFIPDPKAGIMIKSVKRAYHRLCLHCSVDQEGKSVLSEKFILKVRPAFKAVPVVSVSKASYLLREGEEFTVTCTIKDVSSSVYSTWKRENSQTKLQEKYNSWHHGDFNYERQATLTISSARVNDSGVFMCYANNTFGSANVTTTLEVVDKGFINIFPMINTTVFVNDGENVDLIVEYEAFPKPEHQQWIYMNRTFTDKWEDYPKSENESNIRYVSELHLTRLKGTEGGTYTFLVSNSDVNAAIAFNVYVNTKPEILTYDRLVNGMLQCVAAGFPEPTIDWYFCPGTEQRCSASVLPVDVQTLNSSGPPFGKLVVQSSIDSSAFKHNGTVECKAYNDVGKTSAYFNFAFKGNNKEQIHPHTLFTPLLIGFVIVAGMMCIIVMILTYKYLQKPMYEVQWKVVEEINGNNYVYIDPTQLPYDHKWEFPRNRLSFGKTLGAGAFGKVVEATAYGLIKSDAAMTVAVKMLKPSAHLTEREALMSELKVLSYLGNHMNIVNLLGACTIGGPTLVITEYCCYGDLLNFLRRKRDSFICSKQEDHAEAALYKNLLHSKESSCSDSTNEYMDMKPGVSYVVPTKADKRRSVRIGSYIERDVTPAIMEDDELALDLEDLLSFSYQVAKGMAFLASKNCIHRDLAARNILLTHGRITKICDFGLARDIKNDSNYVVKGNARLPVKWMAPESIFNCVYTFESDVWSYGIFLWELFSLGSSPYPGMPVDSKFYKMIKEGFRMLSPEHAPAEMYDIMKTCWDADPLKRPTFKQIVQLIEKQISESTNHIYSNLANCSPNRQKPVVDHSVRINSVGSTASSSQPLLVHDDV

B1: CD117-ADC (anti-CD117 antibody CK6 conjugated to amatoxin) (antibody, V domains shown)
VH: QVQLVQSGAAVKKPGESLKISCKGSGYRFTSYWIGWVRQMPGKGLEWMGIIYPGDSDTRYSPSFQGQVTISAGKSISTAYLQWSSLKASDTAMYYCARHGRGYNGYEGAFDIWGQGTMVTVSS
VL: AIQLTQSPSSLSASVGDRVTITCRASQGISSALAWYQQKPGKAPKLLIYDASSLESGVPSRFSGSGSGTDFTLTISSLQPEDFATYYCQQFNSYPLTFGGGTKVEIK
modifications: antibody conjugated to an amatoxin; site and linker not stated for this assay
In the case of B1, the “IC50, in vitro killing of Kasumi-1 cells (Celltiter Glo)” value [1] is reported as 1600 nM, the “IC50, in vitro killing of primary human CD34+ bone marrow cells” value [1] is reported as 21000 nM and the “IC50 (M), Kasumi-1 cell killing (Celltiter Glo, 3 days)” value (“IC50 (M), Kasumi-1 cell killing” for short) [2] is reported as 1.48e-11 M. For the same binder, the “% efficacy, killing of primary human CD34+CD90+ cells” value (“% efficacy, killing” below) [3] was 70.8% and the “IC50, killing of primary human CD34+CD90+ cells (5 days, flow cytometry counts)” value (shortened to “IC50, killing”) [3] was 0.00977 nM.

B2: HC-85/LC-85 ADC (Ab85 conjugated to an amatoxin) (antibody, V domains shown)
VH: EVQLVQSGAEVKKPGESLKISCKGSGYSFTNYWIGWVRQMPGKGLEWMAIINPRDSDTRYRPSFQGQVTISADKSISTAYLQWSSLKASDTAMYYCARHGRGYEGYEGAFDIWGQGTLVTVSS
VL: DIQMTQSPSSLSASVGDRVTITCRSSQGIRSDLGWYQQKPGKAPKLLIYDASNLETGVPSRFSGSGSGTDFTLTISSLQPEDFATYYCQQANGFPLTFGGGTKVEIK
modifications: antibody conjugated to an amatoxin; site not stated
With B2 the “IC50 (M), Kasumi-1 cell killing” value [2] was 1.76e-11 M, the “% efficacy, killing” value [3] was 71.2% and the “IC50, killing” value [3] was 0.00574 nM.

B3: HC-249/LC-249 ADC (Ab249 conjugated to an amatoxin) (antibody, V domains shown)
VH: B1 VH with Q1E, A10E, S31T, Y32S, G73D, R101L, M118L
VL: B2 VL with S25A, R30G, D32A, G34A, A91L, F94Y, G100Q, K103R, V104L
modifications: antibody conjugated to an amatoxin; site not stated
For B3, the “IC50 (M), Kasumi-1 cell killing” value [2] was 2.5e-11 M, the “% efficacy, killing” value [3] was 52% and the “IC50, killing” value [3] was 0.00667 nM.

B4: HC-85/LC-85 (Ab85) (antibody, V domains shown)
VH: B2 VH
VL: B2 VL
notes: Purified IgG, hIgG1/hKappa; also called Antibody 85
With B4 the Kd [4] was 0.835 nM, the koff [4] was 0.000434 s⁻¹ and the kon [4] was 520000 M⁻¹ s⁻¹. The “Fold improvement (off-rate)” value [5] was 5.2 fold, the Kd [6] was 0.835 nM and the koff [6] was 0.000434 s⁻¹. The kon [6] was 520000 M⁻¹ s⁻¹.
